Data: article PMC11309785

Molecular target: BG505_B23 trimer, His-tagged (HIV-1 isolate BG505)
Test: SPR; ProteOn XPR36, HC30M XanTec chip; His-tagged trimer (300 to 400 RU, 1 ug/mL) captured by immobilised rabbit anti-His-tag pAb, Fab flowed as analyte at 30 ul/min for 3 min, 5 min dissociation; 1x HBS-EP+ pH 7.4 with BSA 1 mg/ml; equilibrium or kinetic (Langmuir) fits; highest concentration 2x10^-5 M, approximate upper affinity limit 1.6x10^-11 M

Binder	Kd [nM]
RM_N332_08 Fab (Fab, V domains shown) VH: QVQLVQSGAEVKKPGSSVKVSCKASGYTFTDHYIHWVRQAPRQGLEWMGWINPYNGNTNYAQKFQGRVTLTRDTSTTTVYMELISLRSEDTAVYYCARGGEYCTGFGCFAGKGDNSLDVWGRGVLVSVSS VL: DIVMIQTPLSLPVTPGEPASISCRSSQSLFDIEDETTYLEWFLQKPGQSPQPLIYEVSNRASGVPDRFSGSGSDTAFTLKISRVEAEDVGIYYCMQGIEYPFTFGPGTKVEIK	< 100
RM_N332_07 Fab (Fab, V domains shown) VH: QVQLQESGPGLVKPSETLSLTCAVSGASFSSFWWDWIRQPPGRGLEWIGDINGNSGSTNYNPSLKSRVTISKDASKSQFSLKLTSVTAADTAVYYCALQSVTYYEDDSGHYETEMAKFWGQGVLVTVSS VL: QPVLTQPPSVSGAPGQRVTISCSGSSSNIGGYHVQWYQQLPGTAPKLLIYESNKRPSGISDRFSASQFGTSASLTITGLQSEDEADYYCQSYDSSVSAQVFGGGTRLTVL	< 100
